Laboratory results as given in patent publication US7413866B2, “Compositions and methods for detecting and treating diseases and conditions related to chemokine receptors” (ChemoCentryx, Inc., priority 2001, dated 2008).

What was measured:
CCR1 on monocytes = CCR1 on monocytes (UniProt P32246); assay: 125I MIP-1α competition binding on cells; monocytes; conditions: ligand
[1] = molecular target: CCR1 on THP-1 cells (acute monocytic leukemia) (UniProt P32246); assay: 125I MIP-1α competition binding on cells; THP-1 cells; conditions: ligand
[2] = molecular target: CCR1 expressed on NSO transfectants (UniProt P32246); assay: 125I MIP-1α competition binding on cells; NSO-CCR1 cells; conditions: ligand
[3] = molecular target: CCR1 expressed on HEK293 transfectants (UniProt P32246); assay: 125I MIP-1α competition binding on cells; HEK293-CCR1 cells; conditions: ligand
CXCR4 on MCF-7 cells [4] = molecular target: T1, CXCR4 on MCF-7 cells (Homo sapiens, UniProt P25106); assay: 125I I-TAC competition binding on MCF-7 cells
T1 construct: host or cells: MCF-7 (whole cells)
T1 sequence (P25106 whole entry): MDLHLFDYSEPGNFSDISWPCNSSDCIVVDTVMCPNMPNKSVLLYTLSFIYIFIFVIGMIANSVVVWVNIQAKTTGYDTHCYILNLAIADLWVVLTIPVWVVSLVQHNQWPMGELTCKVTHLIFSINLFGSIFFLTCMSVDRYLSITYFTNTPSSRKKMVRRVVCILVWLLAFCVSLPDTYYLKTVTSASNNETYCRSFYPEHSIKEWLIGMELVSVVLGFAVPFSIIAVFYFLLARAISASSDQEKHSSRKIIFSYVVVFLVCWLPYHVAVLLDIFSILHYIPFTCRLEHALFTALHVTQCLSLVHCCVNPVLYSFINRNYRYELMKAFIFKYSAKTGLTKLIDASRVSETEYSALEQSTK
Excerpt: (§1) Binding Analysis. We employed our technique, DisplaceMax, to examine the global profile of chemokine ligand interaction with CXCR4 on MCF-7 and CEM-NKr cells. This technology employs expanded, efficiency-maximized radioligand binding using filtration protocols as described previously (Kledal T N, et al. Science 277:1656-1659 (1997); Dairaghi, et al. J Biol Chem 274:21569-74 (1999); Gosling, J. et al. J Immunol 164:2851-6 (2000)). […] Where indicated, anti-CXCR4 antibodies or isotype controls were included in the binding reactions. In these experiments cells were pre-incubated with the indicated concentration of antibody for 30 min at 4° C. prior to the addition of radiolabeled chemokine. Small molecules were included in some assays, where indicated. In these assays the compound was added to the plate to the indicated concentration followed by the addition of radiolabeled chemokine. All assays were then incubated for 3 hrs at 4° C. with gentle agitation. […] Scintillant (MicroScint 10, Packard) was added to the wells, and the filters were counted in a Packard Topcount scintillation counter. Data were analyzed and plotted using Prism (GraphPad Prism version 3.0a for Macintosh, GraphPad Software).

[5] = molecular target: T2, CXCR4 on MCF-7 cells (Homo sapiens); assay: 125I SDF-1α competition binding on MCF-7 cells; conditions: cold competitor array
T2 construct: host or cells: MCF-7 (whole cells)
T2 sequence (P25106 whole entry): as above
Excerpt: (§2) Binding Analysis. We employed our technique, DisplaceMax, to examine the global profile of chemokine ligand interaction with CXCR4 on MCF-7 and CEM-NKr cells. This technology employs expanded, efficiency-maximized radioligand binding using filtration protocols as described previously (Kledal T N, et al. Science 277:1656-1659 (1997); Dairaghi, et al. J Biol Chem 274:21569-74 (1999); Gosling, J. et al. J Immunol 164:2851-6 (2000)). […] Where indicated, anti-CXCR4 antibodies or isotype controls were included in the binding reactions. In these experiments cells were pre-incubated with the indicated concentration of antibody for 30 min at 4° C. prior to the addition of radiolabeled chemokine. Small molecules were included in some assays, where indicated. In these assays the compound was added to the plate to the indicated concentration followed by the addition of radiolabeled chemokine. All assays were then incubated for 3 hrs at 4° C. with gentle agitation. Following incubation in all binding assays, reactions were aspirated onto PEI-treated GF/B glass filters (Packard) using a cell harvester (Packard) and washed twice (25 mM HEPES, 500 mM NaCl, 1 mM CaCl2, 5 mM MgCl2, adjusted to pH 7.1). Scintillant (MicroScint 10, Packard) was added to the wells, and the filters were counted in a Packard Topcount scintillation counter. Data were analyzed and plotted using Prism (GraphPad Prism version 3.0a for Macintosh, GraphPad Software).

CXCR4 on MCF-7 cells [6] = molecular target: T1, CXCR4 on MCF-7 cells; assay: 125I SDF-1α competition binding on MCF-7 cells
Excerpt: as §2

[7] = molecular target: T3, CXCR4 on E13 fetal liver cells (Mus musculus); assay: Radiolabeled human-SDF-1 binding competition on E13 fetal liver cells; conditions: wildtype mouse embryo E13 fetal liver cells
T3 construct: from tissue; host or cells: fetal liver cells of wildtype mouse embryos, E13
T3 sequence (P56485 whole entry): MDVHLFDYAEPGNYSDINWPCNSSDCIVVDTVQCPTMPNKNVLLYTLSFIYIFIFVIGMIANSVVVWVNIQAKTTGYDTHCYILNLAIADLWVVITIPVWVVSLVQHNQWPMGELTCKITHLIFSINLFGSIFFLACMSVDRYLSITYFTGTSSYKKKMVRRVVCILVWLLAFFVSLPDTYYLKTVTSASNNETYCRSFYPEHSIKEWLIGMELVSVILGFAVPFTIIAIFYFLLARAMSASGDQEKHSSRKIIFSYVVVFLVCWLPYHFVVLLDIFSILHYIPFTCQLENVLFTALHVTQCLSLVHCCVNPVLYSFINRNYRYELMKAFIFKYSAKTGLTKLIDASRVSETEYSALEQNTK

MDA MB-231 cells = assay: Matrigel invasion assay; format: cell-based, human; conditions: breast tumor cells, 22 hrs
Method: Invasion Assay. Invasion assays were performed as per the manufacturer's instructions. Briefly, chemokines were diluted in HBSS (Life Technologies, Gaithersburg, Md.) supplemented with 0.1% bovine albumin (Sigma Chemical Company, St. Louis, Mo.) and added to the lower wells of BD BioCoat Matrigel Invasion chambers (BD Biosciences, Bedford, Mass.). MDA MB-231 cells were added to the matrigel coated inserts and the plates were incubated at 37° C. in a humidified incubator at a 5% CO2/air mixture for 22 hrs. Following this incubation, the inserts were transferred to a new plate and the media in the inserts was removed. Using a cotton swab the matrigel plug was removed from each well. The filters were then stained using Protocol Hema staining system (Biochemical Sciences, Inc., Swedesboro, N.J.). Invading cells were examined under a Nikon Elipse E800 (Nikon, Inc., Melville, N.Y.) microscope with a 40× lens. Cells were counted in 5 fields of view of each filter. Data represent the mean of 5 fields of view from each filter tested in triplicate.

[8] = test system: tumor cells expressing the tumor correlated form of CXCR4; assay: Serum starvation apoptosis of tumor cells; format: cell-based; conditions: serum starved overnight, compared to untreated controls
[9] = molecular target: T4, CXCR4 on E17 fetal liver cells (Mus musculus, UniProt P70658); assay: SDF-1 mediated calcium mobilization in E17 fetal liver cells; format: cell-based; conditions: wildtype mouse embryo E17 fetal liver cells
T4 construct: the E17 fetal liver cells also express CXCR4; from tissue; host or cells: fetal liver cells of wildtype mouse embryos, E17
T4 sequence (P70658 whole entry): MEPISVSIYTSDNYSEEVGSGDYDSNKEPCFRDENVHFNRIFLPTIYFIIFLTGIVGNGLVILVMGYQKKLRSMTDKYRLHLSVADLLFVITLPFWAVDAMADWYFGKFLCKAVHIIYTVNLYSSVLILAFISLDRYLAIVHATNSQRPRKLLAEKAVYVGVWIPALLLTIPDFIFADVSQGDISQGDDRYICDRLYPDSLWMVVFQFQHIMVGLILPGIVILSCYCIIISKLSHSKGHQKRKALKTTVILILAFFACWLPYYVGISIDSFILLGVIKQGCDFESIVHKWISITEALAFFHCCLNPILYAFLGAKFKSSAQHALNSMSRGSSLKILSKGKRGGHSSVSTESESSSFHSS

[10] = molecular target: CXCR4 as expressed on breast tumor cells (MCF-7, MDA MB-231) (human) (UniProt P61073); assay: homologous competition against ^125I I-TAC on MCF-7 cells, medium alone
[11] = molecular target: CXCR4 as expressed on breast tumor cells (MCF-7, MDA MB-231) (human) (UniProt P61073); assay: homologous competition against ^125I I-TAC on MCF-7 cells pre-incubated with excess MIG (~175 nM)
CXCR4 on CEM-NKr cells = molecular target: T5, CXCR4 on CEM-NKr cells (Homo sapiens, UniProt P61073); assay: 125I SDF-1α competition binding on CEM-NKr cells; conditions: cold competitor array
T5 construct: host or cells: CEM-NKr (whole cells)
T5 sequence (P61073 whole entry): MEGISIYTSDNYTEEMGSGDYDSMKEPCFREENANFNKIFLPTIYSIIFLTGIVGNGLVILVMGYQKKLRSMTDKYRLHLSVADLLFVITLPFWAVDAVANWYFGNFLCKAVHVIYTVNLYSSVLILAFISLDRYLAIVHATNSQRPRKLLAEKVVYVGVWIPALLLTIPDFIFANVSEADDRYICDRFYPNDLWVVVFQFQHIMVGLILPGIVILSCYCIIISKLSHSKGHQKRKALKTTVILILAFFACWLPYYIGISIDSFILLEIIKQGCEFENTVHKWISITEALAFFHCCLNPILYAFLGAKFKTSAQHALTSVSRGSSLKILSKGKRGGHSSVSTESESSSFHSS
Excerpt: as §1

“CKβ8 (25-99) (from UniProt P55773 46-120)” gave an IC50 (CCR1 on monocytes) of 0.25 nM, an IC50 [1] of 0.27 nM and an IC50 [2] of 0.02 nM. It also gave an IC50 [3] of 1.34 nM.

“MIG: monokine induced by gamma interferon, CXCR3 ligand” was tested, and the “inhibition of 125I I-TAC binding to MCF-7 by cold chemokine competitor (in words)” value (CXCR4 on MCF-7 cells [4]; MCF-7 cells) was “not inhibited” and the “effect of pre-incubation with excess chemokine on 125I I-TAC binding to MCF-7” value (CXCR4 on MCF-7 cells [4]; excess SDF-1β ~90 nM or excess MIG ~175 nM, 30 min at 4° C.) was “did not effect this binding profile”.

For “I-TAC: recombinant human chemokine, reported CXCR3 ligand”, the “DisplaceMax displacement of 125I SDF-1α on MCF-7, affinity class” value [5] was “high affinity”, the “competition with / inhibition of 125I SDF-1α binding on MCF-7 (in words)” value (CXCR4 on MCF-7 cells [6]) was “does compete” and the “competition with radiolabeled human-SDF-1 for binding to E13 fetal liver cells” value [7] was “able to compete”.

In the case of “SDF-1: CXC chemokine, ligand for CXCR4, isoform not stated”, the cell invasion (MDA MB-231 cells) is reported as “induced cell invasion”, the “recovery from serum starvation induced apoptosis” value [8] is reported as “able to recover from the starvation” and the “intracellular calcium mobilization in E17 fetal liver cells” value [9] is reported as “mobilizing intracellular calcium”.

B1: human I-TAC (ligand, UniProt O14625 22-94, looked up)
chain: FPMFKRGRCLCIGPGVKAVKVADIEKASIMYPSNNCDKIEVIITLKENKGQRCLNPKSKQARLIIKKVERKNF
modifications: 125I label where used as the radioligand
Work on B1 yielded an IC50 [10] of 1 nM and an IC50 [11] of 1 nM.

B2: HHV8 vMIP-II: viral recombinant chemokine (protein)
chain: LGASWHRPDKCCLGYQKRPLPQVLLSSWYPTSQLCSKPGVIFLTKRGRQVCADKSKDWVKKLMQQLPVTAR
B2 was tested, and the “DisplaceMax displacement of 125I SDF-1α on CEM-NKr, affinity class” value (CXCR4 on CEM-NKr cells) was “potential moderate affinity”.
